# Reference: US20260132200A1 (Regeneron, published 2026)
# Read-outs that look alike come from different tables or passages of the source.
# T1: human CD3 expressed on cells (Jurkat, a CD3+ human T-cell line; human T cells) (human, UniProt P07766 23-126; P04234 22-100)
# T1 construct: also called FACS JURKAT
# T1 chain 1: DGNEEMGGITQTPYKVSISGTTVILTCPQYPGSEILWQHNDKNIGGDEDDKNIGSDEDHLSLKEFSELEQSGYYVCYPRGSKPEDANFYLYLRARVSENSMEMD
# T1 chain 2: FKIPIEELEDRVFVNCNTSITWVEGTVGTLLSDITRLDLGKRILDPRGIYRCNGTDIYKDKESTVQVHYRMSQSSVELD
# T2: human CD20 expressed on Raji cells (CD3-, CD20+ human B-cell line) (human, UniProt P11836 1-297)
# T2 sequence: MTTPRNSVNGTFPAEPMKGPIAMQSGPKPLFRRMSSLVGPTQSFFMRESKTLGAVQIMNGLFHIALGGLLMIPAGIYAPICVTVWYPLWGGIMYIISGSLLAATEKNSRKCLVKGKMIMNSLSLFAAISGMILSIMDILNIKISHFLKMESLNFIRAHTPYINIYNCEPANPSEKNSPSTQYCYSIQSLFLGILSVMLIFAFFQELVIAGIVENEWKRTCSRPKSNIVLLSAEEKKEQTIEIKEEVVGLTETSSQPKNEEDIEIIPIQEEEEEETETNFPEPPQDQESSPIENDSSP
# T3: Soluble heterodimeric CD3 protein (hCD3-epsilon/hCD3-delta) with either a human Fc tag (hFcΔAdp/hFc) or a … (human, UniProt P07766 23-126; P04234 22-100)
# T3 construct: Soluble construct; not shown: Fc tag: human (hFcΔAdp/hFc)
# T3 chain 1: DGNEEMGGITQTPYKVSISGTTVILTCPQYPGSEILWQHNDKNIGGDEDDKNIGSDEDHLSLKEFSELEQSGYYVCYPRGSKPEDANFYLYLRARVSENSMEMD
# T3 chain 2: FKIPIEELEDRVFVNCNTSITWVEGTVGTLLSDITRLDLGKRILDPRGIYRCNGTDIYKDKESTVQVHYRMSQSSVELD
# Columns and labels:
# [1] = target: T4, cynomolgus monkey CD3 on monkey T cells (CD2+CD4+ cells of cynomolgus PBMCs) (cynomolgus monkey, UniProt Q95LI5 22-198); test: FACS on cynomolgus PBMCs, CD2+CD4+ T cells
# T4 construct: whole, on cells; also called mkT cells; monkey PBMCs
# Procedure: (§1) CD20×CD3 bispecific antibodies and Control constructs, as set forth in Example 1, were tested via FACS for their ability to bind to Jurkat (CD3+, CD20− human T-cell line), Raji (CD3−, CD20+ Human B-cell line), or cynomolgus PBMCs (“mkT cells”).
# (§2) FACS data was acquired using the following protocol: Cells at 2×10⁵ per well were incubated with serially diluted antibodies for 30 min on ice. Post incubation, cells were washed and appropriate secondary (Jurkat, RAJI cells) or cocktail of secondary antibodies (for cyno PBMC) was added and incubated for an additional 30 minutes. After incubation, cells were washed, re-suspended in cold PBS containing 1% BSA and analyzed by flow cytometry on a BD FACS Canto II. Jurkat and Raji cells were gated by side and forward scatters, while cynomolgus T cells were also gated in a CD2+CD4+ population. The EC₅₀s for cell binding titration were determined using Prism software with values calculated using a 4-parameter non-linear regression analysis.
# [2] = target: T1, human CD3 expressed on cells (Jurkat, a …); test: FACS on Jurkat cells
# Procedure: as §1, §2
# [3] = target: T2, human CD20 expressed on Raji cells …; test: cell-based or functional assay
# [4] = target: T3, Soluble heterodimeric CD3 protein …; test: SPR Biacore 25C antigen-capture
# Procedure: (§3) Measurements were conducted on a T200 Biacore instrument.
# In the antigen-capture format, heterodimeric CD3 protein was captured using a rabbit anti-mouse Fc or mouse anti-human Fc and the respective antibodies were injected over the captured antigen.
# (§4) Kinetic association (kₐ) and dissociation (kd) rate constants were determined by processing and fitting the data to a 1:1 binding model using Scrubber 2.0 curve fitting software. Binding dissociation equilibrium constants (KD) and dissociative half-lives (t_{1/2}) were calculated from the kinetic rate constants as: KD (M)=kd/kₐ; and t_{1/2} (min) (ln 2/(60*kd). NT=not tested; NB=no binding observed.
# [5] = target: T3, Soluble heterodimeric CD3 protein …; test: SPR Biacore 25C antibody-capture
# Procedure: as §3
# Heterodimeric CD3 protein was purified using the method described in Davis et al. (US2010/0331527).
# as §4
# [6] = target: T2, human CD20 expressed on Raji cells …; test: cell-based or functional assay; remark: listed apart in the source
# [7] = target: T1, human CD3 expressed on cells (Jurkat, a …); test: cell-based or functional assay
# [8] = target: T2, human CD20 expressed on Raji cells …; test: cell-based or functional assay; remark: listed apart in the source
# [9] = target: T2, human CD20 expressed on Raji cells …; test: FACS on Raji cells
# Procedure: as §1, §2
# [10] = target: T1, human CD3 expressed on cells (Jurkat, a …); test: cell-based or functional assay
# [11] = target: T1, human CD3 expressed on cells (Jurkat, a …); test: FACS on Jurkat cells
# Procedure: Binding was assessed using Jurkat cells (a CD3+ human T-cell line), while proliferation of Peripheral Blood Mononuclear Cells (PBMC) was assessed using ATP catalyzed quantification (CellTiter Glo®).
# FACS data was acquired using the following protocol: Cells at 2×10⁵ per well were incubated with serially diluted antibodies for 30 min on ice. Post incubation, cells were washed and secondary antibody was added and incubated for an additional 30 minutes. After incubation, cells were washed, re-suspended in cold PBS containing 1% BSA and analyzed by flow cytometry with viable Jurkat cells gated by side and forward scatters. The EC₅₀s for cell binding titration were determined using Prism software with values calculated using a 4-parameter non-linear regression analysis.
# T4 sequence (Q95LI5 22-198): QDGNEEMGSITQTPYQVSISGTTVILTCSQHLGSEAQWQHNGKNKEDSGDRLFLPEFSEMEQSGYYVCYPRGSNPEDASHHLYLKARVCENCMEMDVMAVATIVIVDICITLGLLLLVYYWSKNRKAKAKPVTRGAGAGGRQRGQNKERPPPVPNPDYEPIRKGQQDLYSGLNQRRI
EC50 [2] [pM],EC50 [9] [pM],EC50 [11] [pM],Binder,Raji Cytotoxicity Human T-cells [M] (EC50) [6],U937 Cytotoxicity Human T-cells [M] (EC50) [7],U937 Cytotoxicity Human T-cells [M] (EC50) [10],also measured
–,–,–,"Control IV: monoclonal anti-CD20 antibody 3B9-10 (antibody, V domains shown, also called Control IV (anti-CD20)) VH: EVQLVESGGGLVQPGRSLRLSCVASGFTFNDYAMHWVRQAPGKGLEWVSVISWNSDSIGYADSVKGRFTISRDNAKNSLYLQMHSLRAEDTALYYCAKDNHYGSGSYYYYQYGMDVWGQGTTVTVSS VL: EIVMTQSPATLSVSPGERATLSCRASQSVSSNLAWYQQKPGQAPRLLIYGTSTRATGIPARFSGSGSGTEFTLTISSLQSEDFAVYYCQQYNNWPLTFGGGTKVEIK",–,–,–,"binding result [1]: no binding; binding result [2]: no binding; CDC EC50, Raji [3]: 247 pM; CDC EC50, Raji SCID1 [3]: 51900 pM; CDC EC50, Raji SCID2 [3]: 229 pM; CDC EC50, Raji SCID3 [3]: 5710 pM; CDC EC50, Raji SCID4 [3]: 1140 pM"
–,–,–,"H2M2776N (antibody, V domains shown, mouse IgG2 Fc, human variable regions) VH: QVQLVESGGGVVQPGRSLRLSCAASGFTFRSFGMHWVRQAPGRGLEWVAMIYFDGKNKYYADSVRGRFTISRDNSKNTLYLEMSSLRAEDTAVYFCARGPGYNWLDPWGQGTLVTVSS VL: EIVMTQSPATLSVSPGERVILSCRASQSISRNLAWYQQKPGQAPRLLIYGATTRATGVPARFSGSGSGTEFTLTISSLQSEDFAVFYCQQYNNRPLTFGGGTEVEIK",–,–,–,Kd [4]: 140 pM; T½ [4]: 52 min; koff [4]: 0.000222 s⁻¹; kon [4]: 1.58e+06 M⁻¹ s⁻¹; Kd [5]: 10200 pM; koff [5]: 0.000639 s⁻¹; kon [5]: 62900 M⁻¹ s⁻¹
56700,92400,–,"BS3/20-003 (bispecific antibody, V domains shown) VH 1: EVQLVESGGGLVQPGRSLRLSCVASGFTFNDYAMHWVRQAPGKGLEWVSVISWNSDSIGYADSVKGRFTISRDNAKNSLYLQMHSLRAEDTALYYCAKDNHYGSGSYYYYQYGMDVWGQGTTVTVSS VH 2: EVQLVESGGGLVQPGRSLRLSCAASGFTFDDYTMHWVRQAPGKGLEWVSGISWNSGSIGYADSVKGRFTISRDNAKKSLYLQMNSLRAEDTALYYCAKDNSGYGHYYYGMDVWGQGTTVTVAS VL: EIVMTQSPATLSVSPGERATLSCRASQSVSSNLAWYQQKPGQAPRLLIYGASTRATGIPARFSGSGSGTEFTLTISSLQSEDFAVYYCQHYINWPLTFGGGTKVEIK",7.38e-11,8.1e-11,–,"Raji Cytotoxicity Monkey T-cells [M] (EC50) [6]: 4.36e-14 M; CD25 upregulation on CD8+ T-cells, PBMC + Raji, EC50 [8]: 0.338 pM; CD25 upregulation on CD8+ T-cells, PBMC, EC50 [8]: 365 pM"
–,–,711,"H2M2709N (antibody, mouse IgG2, V domains shown, mouse IgG2 Fc (H2M), human variable regions) VH: QVQLVESGGGVVQPGRSLRLSCAASGFTFRSFGMHWVRQAPGRGLEWVAMIYFDGKNKYYADSVRGRFTISRDNSKNTLYLEMSSLRAEDTAVYFCARGPGYNWLDPWGQGTLVTVSS VL: EIVMTQSPATLSVSPGERVTLSCRASQSISRNLAWYQQKPGQAPRLLIYGASTRATGVPARFSGSGSGTEFTLTISSLQSEDFAVFHCQQYNNRPLTFGGGTEVEIK",–,–,3.47e-12,–
38500,59900,–,"BS3/20-001 (bispecific antibody, V domains shown, also called CD3×CD20 bispecific antibody) VH 1: EVQLVESGGGLVQPGRSLRLSCVASGFTFNDYAMHWVRQAPGKGLEWVSVISWNSDSIGYADSVKGRFTISRDNAKNSLYLQMHSLRAEDTALYYCAKDNHYGSGSYYYYQYGMDVWGQGTTVTVSS VH 2: EVQLVESGGGLVQPGRSLRLSCAASGFTFDDYTMHWVRQAPGKGLEWVSGISWNSGSIGYADSVKGRFTISRDNAKKSLYLQMNSLRAEDTALYYCAKDNSGYGHYYYGMDVWGQGTTVTVAS VL: AEIVMTQSPATLSVSPGERATLSCRASQSVSSNLAWYQQKPGQAPRLLIYGASTRATGIPARFSGSGSGTEFTLTISSLQSEDFAVYYCQHYINWPLTFGGGTKVEIK",5.63e-11,8.86e-11,–,"Raji Cytotoxicity Monkey T-cells [M] (EC50) [6]: 1.27e-12 M; CD25 upregulation on CD8+ T-cells, PBMC + Raji, EC50 [8]: 1.35 pM; CD25 upregulation on CD8+ T-cells, PBMC, EC50 [8]: 112 pM"
48900,10200,–,"BS3/20-004 (bispecific antibody, V domains shown) VH 1: EVQLVESGGGLVQPGRSLRLSCVASGFTFNDYAMHWVRQAPGKGLEWVSVISWNSDSIGYADSVKGRFTISRDNAKNSLYLQMHSLRAEDTALYYCAKDNHYGSGSYYYYQYGMDVWGQGTTVTVSS VH 2: QVQLVESGGGVVQPGRSLRLSCAASGFTFRSYAMHWVRQAPGKGLEWVAMVYYDGNNQYYADSVRGRFTISRDNSKNTLYLQMNSLRADDTAVYFCARGPGYNWLDPWGQGTLVTVSS VL: EIVMTQSPATLSVSPGERATLSCRASQSVSRNLAWYQQKPGQAPRLLIYGASTRATGIPARFSGSGSGTDFTLTISSLQSEDFAVYYCQQYNNWPLTFGGGTKVVIK",1.29e-11,6.07e-11,–,–
56200,11500,–,"BS3/20-002 (bispecific antibody, V domains shown) VH 1: EVQLVESGGGLVQPGRSLRLSCVASGFTFNDYAMHWVRQAPGKGLEWVSVISWNSDSIGYADSVKGRFTISRDNAKNSLYLQMHSLRAEDTALYYCAKDNHYGSGSYYYYQYGMDVWGQGTTVTVSS VH 2: EVQLVESGGGLVQPGGSLRLSCAATGFTFDDFTMHWVRQAPGKGLEWVSGISWNSGSIGYVDSVKGRFTISRDNAKNSLYLQMNSLRAEDTALYYCAKDNSGYGYYYYGMDVWGQGTTVTVSS VL: EIVMTQSPATLSVSPGERATLSCRASHSVSRNSAWYQQKPGQAPRLLIYGASTRATGIPARFSGSGSGTEFTLTISSLQSEDFAIYYCQQYNNWPLTFGGGTKVEIK",7.71e-11,8.24e-10,–,–
–,–,491,"H2M2776N (antibody, mouse IgG2, V domains shown, mouse IgG2 Fc (H2M), human variable regions) VH: QVQLVESGGGVVQPGRSLRLSCAASGFTFRSFGMHWVRQAPGRGLEWVAMIYFDGKNKYYADSVRGRFTISRDNSKNTLYLEMSSLRAEDTAVYFCARGPGYNWLDPWGQGTLVTVSS VL: EIVMTQSPATLSVSPGERVILSCRASQSISRNLAWYQQKPGQAPRLLIYGATTRATGVPARFSGSGSGTEFTLTISSLQSEDFAVFYCQQYNNRPLTFGGGTEVEIK",–,–,4.06e-12,–
–,–,845,"H2M2704N (antibody, mouse IgG2, V domains shown, mouse IgG2 Fc (H2M), human variable regions) VH: QVQLVESGGGVVQPGRSLRLSCGASGFTFRSYGMHWVRQTPGRGLEWVAMIYYDGNNKYYADSVRGRFTVSRDNSKNTLYLQMSSLRAEDTALYFCARGPGYNWLDPWGQGTLVTVSS VL: EIVMTQSPATLSVSPGERATLSCRASQSISRNLAWYQQKPGQAPRLLIYGASTRATGIPARFSGSGSGTEFTLTISSLQSEDFAVYYCQQYNNRPLTFGGGTEVEIK",–,–,2.49e-12,–
